Our source for the stoichiometry N values is publication PMC3919601.

The target of the assay is 80S ribosomes from yeast cells expressing wild-type rpL10 (S. cerevisiae) (UniProt P41805). The experiment in a line: steady-state binding of [32P]-Sdo1p; ribosomes held on cysteine-charged sulfolink resin, unbound Sdo1p in the flow-through counted; 2 pmol ribosomes with 0.25–32 pmol Sdo1p and 100 µg polyU in 50 mM Tris-(OAc)2 pH 7.5, 50 mM NH4(OAc)2, 10 mM Mg(OAc)2, 2 mM DTT, 50 µl, 30°C 20 min.
Sequence of UniProt P41805 (P41805 whole entry, looked up): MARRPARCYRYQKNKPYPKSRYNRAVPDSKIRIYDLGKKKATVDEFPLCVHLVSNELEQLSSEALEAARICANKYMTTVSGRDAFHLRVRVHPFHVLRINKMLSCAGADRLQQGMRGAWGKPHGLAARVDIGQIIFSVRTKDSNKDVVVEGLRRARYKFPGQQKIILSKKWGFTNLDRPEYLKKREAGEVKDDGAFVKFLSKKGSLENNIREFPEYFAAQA

B1: Sdo1p with a C-terminal 6× histidine tag and the phosphorylatable kemptide (natural protein)
chain: MPINQPSGQIKLTNVSLVRLKKARKRFEVACYQNKVQDYRKGIEKDLDEVLQIHQVFMNVSKGLVANKEDLQKCFGTTNVDDVIEEIMHKGEIQLSEKERQLMLNKVNNEMLTIVSAKCINPVSKKRYPPTMIHKALQELKFSPVINKPAKLQALEAIKLLVSKQIIPIVRAKMKVKVAISEPSRQPELIEKISKLIASSPGESTKPELDPWTCTGLIDPVNYRDLMTLCDKKGTVQVLDMAVIDNTTHN
modifications: 32P-phosphate on the kemptide (labelled with PKA and [32P]-γ-ATP, 40–60% label incorporation)
A word on the stoichiometry N: it is the number of molecules, sites or subunits per partner or assembly. B1 registered a stoichiometry N of 1.
